Laboratory results published in paper PMC10951451 (Current Therapeutic Research, Clinical and Experimental, 2024).
Read-outs that look alike come from different tables or passages of the source.

Format: in vivo, Norwegian domestic pigs (Sus scrofa domesticus)
Conditions: for AUC0–∞ with AUC of porcine insulin subtracted: mean (SD)

In the case of insulin aspart, the “AUC0–∞ with AUC of porcine insulin subtracted” value (glucagon group: 10 IU insulin aspart sc + 100 µg glucagon, n = 6) was 7908 (1159) mU/L/min, the “Median AUC0–∞ plasma insulin concentration” value (glucagon group: 10 IU insulin aspart sc + 100 µg glucagon) was 8419 mU/L/min and the “AUC0–∞ with AUC of porcine insulin subtracted” value (placebo group: 10 IU insulin aspart sc + saline, 1 of 6 pigs excluded) was 5372 (994) mU/L/min. For the same substance, the “Median AUC0–∞ plasma insulin concentration” value (placebo group: 10 IU insulin aspart sc + saline) was 6211 mU/L/min.
